Biological target: T1, ENaC containing the βS518C mutant (Rattus norvegicus, UniProt P37089+P37090+P37091, S518C)
T1 construct: expressed in transfected cells; host or cells: Xenopus oocytes
T1 sequence (P37089 1-698): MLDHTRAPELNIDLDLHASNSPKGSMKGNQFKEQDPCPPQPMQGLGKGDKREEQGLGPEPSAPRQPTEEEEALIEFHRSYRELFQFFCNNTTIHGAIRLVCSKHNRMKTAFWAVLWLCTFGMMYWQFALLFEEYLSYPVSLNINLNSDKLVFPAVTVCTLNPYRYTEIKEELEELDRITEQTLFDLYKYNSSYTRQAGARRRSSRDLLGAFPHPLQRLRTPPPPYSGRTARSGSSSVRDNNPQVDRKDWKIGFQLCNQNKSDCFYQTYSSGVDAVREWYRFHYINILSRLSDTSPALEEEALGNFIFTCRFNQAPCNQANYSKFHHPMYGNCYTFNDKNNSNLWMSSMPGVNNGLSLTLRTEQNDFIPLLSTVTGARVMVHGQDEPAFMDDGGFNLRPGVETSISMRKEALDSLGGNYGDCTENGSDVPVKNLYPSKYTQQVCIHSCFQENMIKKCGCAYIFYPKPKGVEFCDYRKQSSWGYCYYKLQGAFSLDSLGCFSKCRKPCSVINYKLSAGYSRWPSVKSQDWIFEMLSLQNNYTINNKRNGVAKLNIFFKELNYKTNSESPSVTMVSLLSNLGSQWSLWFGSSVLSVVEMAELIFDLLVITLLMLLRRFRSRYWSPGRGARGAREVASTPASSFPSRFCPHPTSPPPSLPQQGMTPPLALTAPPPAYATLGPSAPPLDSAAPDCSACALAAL
T1 sequence (P37090 1-638 S518C): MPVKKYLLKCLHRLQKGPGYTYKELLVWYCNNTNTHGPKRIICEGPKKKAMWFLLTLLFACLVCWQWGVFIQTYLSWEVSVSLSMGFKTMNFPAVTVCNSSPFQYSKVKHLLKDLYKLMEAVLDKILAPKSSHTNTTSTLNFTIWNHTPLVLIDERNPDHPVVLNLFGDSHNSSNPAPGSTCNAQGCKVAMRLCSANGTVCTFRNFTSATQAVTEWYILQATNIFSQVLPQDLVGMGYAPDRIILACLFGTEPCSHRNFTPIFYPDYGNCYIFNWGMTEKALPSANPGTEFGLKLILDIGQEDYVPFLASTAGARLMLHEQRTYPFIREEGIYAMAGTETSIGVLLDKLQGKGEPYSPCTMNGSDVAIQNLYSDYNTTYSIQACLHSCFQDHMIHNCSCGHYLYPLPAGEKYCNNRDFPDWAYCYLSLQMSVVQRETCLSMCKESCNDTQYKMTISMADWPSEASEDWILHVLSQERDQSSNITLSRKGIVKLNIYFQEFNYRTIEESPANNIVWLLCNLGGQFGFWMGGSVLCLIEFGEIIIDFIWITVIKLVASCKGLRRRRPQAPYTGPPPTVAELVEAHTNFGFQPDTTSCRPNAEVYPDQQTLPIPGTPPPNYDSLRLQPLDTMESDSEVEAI
T1 sequence (P37091 1-650): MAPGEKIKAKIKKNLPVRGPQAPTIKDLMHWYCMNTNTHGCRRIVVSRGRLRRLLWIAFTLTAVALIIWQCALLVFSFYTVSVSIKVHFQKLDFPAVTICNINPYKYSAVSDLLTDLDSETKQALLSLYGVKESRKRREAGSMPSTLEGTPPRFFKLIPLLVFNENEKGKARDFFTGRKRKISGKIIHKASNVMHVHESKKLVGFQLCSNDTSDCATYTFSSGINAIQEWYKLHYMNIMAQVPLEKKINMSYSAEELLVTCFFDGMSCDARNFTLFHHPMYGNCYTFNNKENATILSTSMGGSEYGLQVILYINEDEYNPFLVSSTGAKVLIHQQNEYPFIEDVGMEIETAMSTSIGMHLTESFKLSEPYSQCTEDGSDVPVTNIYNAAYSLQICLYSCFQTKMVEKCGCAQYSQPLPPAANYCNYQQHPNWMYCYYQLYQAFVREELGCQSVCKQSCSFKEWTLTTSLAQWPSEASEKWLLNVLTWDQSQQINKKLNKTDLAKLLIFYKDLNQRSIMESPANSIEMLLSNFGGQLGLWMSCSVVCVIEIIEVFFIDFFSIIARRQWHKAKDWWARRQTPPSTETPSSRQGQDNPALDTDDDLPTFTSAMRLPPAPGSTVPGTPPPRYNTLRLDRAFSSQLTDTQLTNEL
Assay: Oocyte current of ENaC containing the βS518C mutant with MTSET
Format: cell-based
Conditions: SPLUNC1 coexpression, n=6
Description: Oocyte studies. Xenopus laevis oocytes were harvested and injected as described (Donaldson, et al., J. Biol. Chem. 277:8338 (2002)). Defolliculated healthy stage V-VI oocytes were injected with 0.3 ng of cRNA of each ENaC subunit. Injected oocytes were kept in modified Barth's saline (in mM: 88 NaCl, 1 KCl, 2.4 NaHCO3, 0.3 Ca(NO3)2, 0.41 CaCl2, 0.82 MgSO4, and 15 HEPES, adjusted to pH 7.35 with Tris). Oocytes were studied 24 hr after injection using the two electrode voltage clamp technique as previously described (Donaldson, et al., J. Biol. Chem. 277:8338 (2002)). Oocytes were clamped at a holding potential of […]. The change in amiloride-sensitive whole cell current as an indicator of ENaC activity was determined by subtracting the corresponding current value measured in the presence of 10 μM amiloride from that measured before the application of amiloride.
The effect of SPLUNC1 on the number of ENaC channels in the plasma membrane was tested by expressing SPLUNC1 and αENaC in Xenopus oocytes. After surface biotinylation of αENaC, total lysate was prepared and lysate from 3-4 eggs was separated on a 10% gel.

B1: SPLUNC1: human SPLUNC1, 256 amino acid secreted PLUNC protein (SEQ ID NO:1); rSPLUNC1 = V5/6His-tagged protein purified from HEK293 media (protein, listed as Homo sapiens)
chain: MFQTGGLIVFYGLLAQTMAQFGGLPVPLDQTLPLNVNPALPLSPTGLAGSLTNALSNGLLSGGLLGILENLPLLDILKPGGGTSGGLLGGLLGKVTSVIPGLNNIIDIKVTDPQLLELGLVQSPDGHRLYVTIPLGIKLQVNTPLVGASLLRLAVKLDITAEILAVRDKQERIHLVLGDCTHSPGSLQISLLDGLGPLPIQGLLDSLTGILNKVLPELVQGNVCPLVNEVLRGLDITLVHDIVNMLIHGLQFVIKV
modifications: V5/6His tag
notes: rSPLUNC1 = V5/6His-tagged protein purified from HEK293 media
overall current with MTSET: still reduced
